In US5558865, “HIV immunotherapeutics” (Nissin Shokuhin Kabushiki Kaisha, dated 1996):

B1: monoclonal antibody P4/D10 (antibody, V domains shown)
VH: QIQLQQSGAELASPGASVTLSCKASGYTFTDHIMNWVKKRPGQGLEWIGRIFPVSGETNYNQKFMGKATFSVDRSSSTVSMVLNSLTSEDPAVYYCDLIYYDYEEDYYFDYWGQGTTLTV
VL: DIVLTQSPASLAVSLGQRATISCRASESVDDYGISFMHWYQQKLGQPPKLLIYRASNLESGIPARFSGSGSGTEFTLTINPVETDDVATYYCQQSNKDPLTFGAGTKLELKR
B2: monoclonal antibody F58/H3 (antibody, V domains shown)
VH: QIQLQQSGAELASPGASVTLSCKASGYTFTDHIMNWVKKRPGQGLEWIGRIFPVSGETNYNQKFMGKATFSVDRSSSTVSMVLNSLTSEDPAVYYCDLIYYDYEEDYYFDYWGQGTTLTV
VL: DIVLTQSPASLAVSLGQRATISCRASESVDDYGISFMHWYQQKLGQPPKLLIYRASNLESGIPARFSGSGSGTEFTLTINPVETDDVATYYCQQSNKDPLTFGAGTKLELKR
B3: monoclonal antibody NM-01 (antibody, V domains shown)
VH: QIQLKESGPAVIKPSQSLSLTCIVSGFSITSSSYCWHWIRQPPGKGLEWMGRICYEGSIDYSPSIKSRSTISRDTSLNRFFIQLSSVTNEDTAMYYCSRENHGTTTSMDYWGQGTSVTVSS
VL: DIVLTQSPASLAVSLGQRATISCRASESVDSYGNSFMHWYQQKPGQSPKLLIYVASNLESGVPARFSGSGSRTDFTLTIDPVEADDAATYYCQQNNEDPLTFGAGTKLELKR

What was measured:
[1] = target: T1, native HIV-1IIIB gp120 (HIV-1 strain IIIB, UniProt P04578); assay: Western blot, colorimetric
[2] = target: recombinant HIV-1IIIB gp120 (DuPont-NEN) (HIV-1 strain IIIB, UniProt P04578); assay: Western blot, colorimetric
[3] = target: T2, IIIB loop peptide Peptide 2 (HIV-1 strain IIIB); assay: competition ELISA, 5 µg/ml antibody preincubated with 50 µg/ml peptide, on coated recombinant IIIB gp120
T2 peptide: RIQRGPGR

[4] = target: V3 loop peptide of HIV-1 isolate NY/5 (HIV-1 isolate NY/5); assay: peptide ELISA
[5] = target: V3 loop peptide of HIV-1 isolate IIIB (HIV-1 isolate IIIB); assay: peptide ELISA
[6] = target: V3 loop peptide of HIV-1 isolate ELI (HIV-1 isolate ELI); assay: peptide ELISA
[7] = target: V3 loop peptide of HIV-1 isolate Z6 (HIV-1 isolate Z6); assay: peptide ELISA
[8] = target: V3 loop peptide of HIV-1 isolate Z2 (HIV-1 isolate Z2); assay: peptide ELISA
[9] = target: V3 loop peptide of HIV-1 isolate CDC4 (HIV-1 isolate CDC4); assay: peptide ELISA
[10] = target: T3, V3 loop peptide of HIV-1 isolate MN (HIV-1 isolate MN); assay: peptide ELISA
T3 peptide: RIHIGPGRAFYTTKN

[11] = target: T4, native HIV-1MN gp120 (HIV-1 strain MN, UniProt P05877); assay: Western blot
[12] = target: recombinant HIV-1MN gp120 (Agmed, Inc.) (HIV-1 strain MN, UniProt P05877); assay: Western blot
[13] = target: T5, IIIB loop peptide Peptide 4 (HIV-1 strain IIIB); assay: competition ELISA, 5 µg/ml antibody preincubated with 50 µg/ml peptide, on coated recombinant IIIB gp120
T5 peptide: QRGPGRAF

[14] = target: T6, IIIB loop peptide Peptide 3 (HIV-1 strain IIIB); assay: as above
T6 peptide: IQRGPGRA

[15] = target: T1, native HIV-1IIIB gp120; assay: immunofluorescence on slides of IIIB-infected H9 cells
[16] = target: T7, peptide of amino acids 312-326 of HIV-1MN gp120 (HIV-1 strain MN); assay: peptide ELISA, 9.50 ng NM-01
T7 peptide: RIHIGPGRAFYTTKN

[17] = target: T8, peptide of amino acids 302-316 of HIV-1MN gp120 (HIV-1 strain MN); assay: peptide ELISA, 9.50 ng NM-01
[18] = target: T9, peptide of amino acids 322-336 of HIV-1MN gp120 (HIV-1 strain MN); assay: peptide ELISA, 9.50 ng NM-01
T9 peptide: YTTKNIIGTIRQAHC

[19] = target: T4, native HIV-1MN gp120; assay: ELISA, hybridoma supernatant on membranes of MN-infected and uninfected H9 cells
[20] = target: T4, native HIV-1MN gp120
[21] = target: T7, peptide of amino acids 312-326 of …; assay: peptide ELISA, 19.0 ng NM-01
[22] = target: T8, peptide of amino acids 302-316 of …; assay: peptide ELISA, 19.0 ng NM-01
[23] = target: T9, peptide of amino acids 322-336 of …; assay: peptide ELISA, 19.0 ng NM-01
[24] = target: V3 loop peptide of HIV-1 isolate RF (HIV-1 isolate RF); assay: peptide ELISA
[25] = target: T8, peptide of amino acids 302-316 of …; assay: peptide ELISA
[26] = target: T9, peptide of amino acids 322-336 of …; assay: peptide ELISA
[27] = target: T7, peptide of amino acids 312-326 of …; assay: peptide ELISA, 4.75 ng NM-01
[28] = target: T8, peptide of amino acids 302-316 of …; assay: peptide ELISA, 4.75 ng NM-01
[29] = target: T9, peptide of amino acids 322-336 of …; assay: peptide ELISA, 4.75 ng NM-01

Row | Binder | binding result [1] | binding result [2] | binding result [4] | binding result [5] | binding result [6] | binding result [7] | binding result [8] | binding result [9] | binding result [10] | binding result [11] | binding result [12] | binding result [13] | also measured
1 | B1 | binds | binds | no binding | binds | no binding | no binding | no binding | no binding | no binding | no binding | no binding | – | binding result [3]: binds
2 | B2 | binds | binds | no binding | binds | no binding | no binding | no binding | no binding | no binding | no binding | no binding | binds | binding result [14]: binds
3 | B3 | – | binds | binds | binds | no binding | no binding | no binding | binds | – | – | – | binds | binding result [15]: binds; optical density at 650 nm [16]: 0.827 OD 650 nm; optical density at 650 nm [17]: 0.024 OD 650 nm; optical density at 650 nm [18]: 0.028 OD 650 nm; ELISA ratio, infected against uninfected cell membranes (Run 1) [19]: 5.76 ratio; RIA ratio cpm inf/cpm uninf [20]: 9.81 ratio; optical density at 650 nm [21]: 1.14 OD 650 nm; optical density at 650 nm [22]: 0.024 OD 650 nm; optical density at 650 nm [23]: 0.03 OD 650 nm; binding result [24]: binds; binding result [25]: no binding (tested: 19.0 ng); binding result [26]: no binding (tested: 19.0 ng); optical density at 650 nm [27]: 0.781 OD 650 nm; optical density at 650 nm [28]: 0.024 OD 650 nm; optical density at 650 nm [29]: 0.03 OD 650 nm
